{"source": "patent US20210369854A1", "key": {"[1]": {"target": "human CD5 on cells (MOLT-4 human T lymphoblast cell line; primary human T-cells) (human) (UniProt P06127)", "experiment": "flow cytometry on primary human T-cells, antibody titration, fluorophore-conjugated (AF488) secondary anti-IgG, MFI"}, "[2]": {"target": "purified human CD5 ectodomain (human) (UniProt P06127)", "experiment": "BLI (Octet Red96), antibody on anti-human Fc biosensors, 50 nM CD5 ectodomain, 25 C"}}, "data": [{"binder": "anti-CD5 antibody 5D7 hIgG1 (humanized version of murine antibody 5D7) (antibody, V domains shown) VH: QVTLKESGPVLVKPTETLTLTCTFSGFSLSTSGMGVGWIRQAPGKGLEWVAHIWWDDDVYYNPSLKSRLTITKDASKDQVSLKLSSVTAADTAVYYCVRRRATGTGFDYWGQGTLVTVSS VL: NIVMTQSPSSLSASVGDRVTITCQASQDVGTAVAWYQQKPDQSPKLLIYWTSTRHTGVPDRFTGSGSGTDFTLTISSLQPEDIATYFCHQYNSYNTFGSGTKLEIK", "values": [{"measurement": "EC50 (read off the curve)", "setting": "[1]", "value": 0.03, "unit": "nM"}, {"measurement": "Response (nm)", "setting": "[2]", "value": 0.67, "unit": "nm"}]}]}
